# Data: patent publication US20100204053
# Test system: RSK2
# Sequence (chain, as listed by the source): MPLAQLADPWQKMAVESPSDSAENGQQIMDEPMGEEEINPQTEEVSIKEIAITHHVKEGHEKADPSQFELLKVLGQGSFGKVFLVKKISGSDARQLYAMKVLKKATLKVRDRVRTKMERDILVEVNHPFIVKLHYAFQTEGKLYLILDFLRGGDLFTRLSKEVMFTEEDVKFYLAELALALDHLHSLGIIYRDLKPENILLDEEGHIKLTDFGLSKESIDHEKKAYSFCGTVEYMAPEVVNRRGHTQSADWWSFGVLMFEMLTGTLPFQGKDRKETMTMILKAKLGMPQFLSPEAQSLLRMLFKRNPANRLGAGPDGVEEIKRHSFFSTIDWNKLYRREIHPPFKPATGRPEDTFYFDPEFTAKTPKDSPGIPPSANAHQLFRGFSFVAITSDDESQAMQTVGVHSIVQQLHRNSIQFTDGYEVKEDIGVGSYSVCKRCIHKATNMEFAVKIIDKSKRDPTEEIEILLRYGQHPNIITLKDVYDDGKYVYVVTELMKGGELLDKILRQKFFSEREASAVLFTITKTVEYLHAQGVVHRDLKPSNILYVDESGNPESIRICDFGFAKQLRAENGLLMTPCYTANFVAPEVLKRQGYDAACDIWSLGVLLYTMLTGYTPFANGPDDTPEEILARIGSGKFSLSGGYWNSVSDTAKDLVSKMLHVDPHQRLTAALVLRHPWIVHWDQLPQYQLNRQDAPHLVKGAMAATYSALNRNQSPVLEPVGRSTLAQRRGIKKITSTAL
substance,measurement,value
WWP1,RSK2 ubiquitination,SHN3 and WWP1 can promote RSK2 ubiquitination
